# Data: patent publication US20220411491A1 (Hoffmann-La Roche, published 2022)
# B1: 5E11g2 (antibody, human IgG1, kappa, V domains shown)
# VH: ELQLEQSGGGLVQPGGSLTLSCAASGFTFSKYAMAWVRQAPTKGLEWVASISTGGVNTYYRDSVKARFTISRDNAKNTQYLQMDSLRSEDTATYYCATHTGDYFDYWGQGVMVTVSS
# VL: DIVLTQSPALAVSPGQRATISCRASQSVSISGINLMNWYQQKPGQQPKLLIYHASILASGIPTRFSGSGSGTDFTLTIDPVQADDIATYYCQQTRESPLTFGSGTNLEIKR
# notes: Glyco-engineered human IgG1 (GlycoMab technology); afucosylation degree 59.1%; also called BSH-5E11-G7 hu IgG1 G2
# B2: 5F11g2 (antibody, human IgG1, kappa, V domains shown)
# VH: EVQLVESGGGLVQPGRSLKLSCAASGFSFSNYGMAWVRQAATKGLEWVASISTGGGNTYYRDSVKGRFIVSRDNAKNTQYLQMDSLRSEDTATYYCTRHDRGGLYWGQGVMVTVSS
# VL: DIVMTQAPLSVSVTPGESASISCRSSKSLLHSNGITYVYWYFQKPGKSPQVLIYRMSNLASGVPDRFSGSGSETDFTLKISRVEAEDVGIYHCGQLLENPYTFGAGTELELKR
# B3: 5F11-TCB (bispecific antibody, human IgG1, kappa, L234A L235A)
# light 1: DIVMTQAPLSVSVTPGESASISCRSSKSLLHSNGITYVYWYFQKPGKSPQVLIYRMSNLASGVPDRFSGSGSETDFTLKISRVEAEDVGIYHCGQLLENPYTFGAGTELELKRTVAAPSVFIFPPSDRKLKSGTASVVCLLNNFYPREAKVQWKVDNALQSGNSQESVTEQDSKDSTYSLSSTLTLSKADYEKHKVYACEVTHQGLSSPVTKSFNRGEC
# light 2: EVQLLESGGGLVQPGGSLRLSCAASGFTFSTYAMNWVRQAPGKGLEWVSRIRSKYNNYATYYADSVKGRFTISRDDSKNTLYLQMNSLRAEDTAVYYCVRHGNFGNSYVSWFAYWGQGTLVTVSSASVAAPSVFIFPPSDEQLKSGTASVVCLLNNFYPREAKVQWKVDNALQSGNSQESVTEQDSKDSTYSLSSTLTLSKADYEKHKVYACEVTHQGLSSPVTKSFNRGEC
# heavy 1: EVQLVESGGGLVQPGRSLKLSCAASGFSFSNYGMAWVRQAATKGLEWVASISTGGGNTYYRDSVKGRFIVSRDNAKNTQYLQMDSLRSEDTATYYCTRHDRGGLYWGQGVMVTVSSASTKGPSVFPLAPSSKSTSGGTAALGCLVEDYFPEPVTVSWNSGALTSGVHTFPAVLQSSGLYSLSSVVTVPSSSLGTQTYICNVNHKPSNTKVDEKVEPKSCDKTHTCPPCPAPEAAGGPSVFLFPPKPKDTLMISRTPEVTCVVVDVSHEDPEVKFNWYVDGVEVHNAKTKPREEQYNSTYRVVSVLTVLHQDWLNGKEYKCKVSNKALGAPIEKTISKAKGQPREPQVCTLPPSRDELTKNQVSLSCAVKGFYPSDIAVEWESNGQPENNYKTTPPVLDSDGSFFLVSKLTVDKSRWQQGNVFSCSVMHEALHNHYTQKSLSLSPGK
# heavy 2: not shown
# B4: BCMA-TCB (bispecific antibody, human IgG1, kappa, L234A L235A)
# heavy 1: EVQLLESGGGLVQPGGSLRLSCAASGFTFSSYAMNWVRQAPGKGLEWVSAITASGGSTYYADSVKGRFTISRDNSKNTLYLQMNSLRAEDTAVYYCARYWPMSLWGQGTLVTVSSASTKGPSVFPLAPSSKSTSGGTAALGCLVEDYFPEPVTVSWNSGALTSGVHTFPAVLQSSGLYSLSSVVTVPSSSLGTQTYICNVNHKPSNTKVDEKVEPKSCDKTHTCPPCPAPEAAGGPSVFLFPPKPKDTLMISRTPEVTCVVVDVSHEDPEVKFNWYVDGVEVHNAKTKPREEQYNSTYRVVSVLTVLHQDWLNGKEYKCKVSNKALGAPIEKTISKAKGQPREPQVCTLPPSRDELTKNQVSLSCAVKGFYPSDIAVEWESNGQPENNYKTTPPVLDSDGSFFLVSKLTVDKSRWQQGNVFSCSVMHEALHNHYTQKSLSLSPGK
# light 1: EIVLTQSPGTLSLSPGERATLSCRASQSVSAYYLAWYQQKPGQAPRLLMYDASIRATGIPDRFSGSGSGTDFTLTISRLEPEDFAVYYCQQYERWPLTFGQGTKVEIKRTVAAPSVFIFPPSDRKLKSGTASVVCLLNNFYPREAKVQWKVDNALQSGNSQESVTEQDSKDSTYSLSSTLTLSKADYEKHKVYACEVTHQGLSSPVTKSFNRGEC
# heavy 2: not shown
# light 2: B3 light 2
# Experiments:
# [1] = molecular target: T1, human GPRC5D (human, UniProt Q9NZD1 1-345); assay: cell-based or functional assay
# [2] = molecular target: T1, human GPRC5D; assay: flow cytometry on NCI-H929 cells expressing human GPRC5D
# Method: To measure the binding to GPRC5D, we performed a flow cytometry-based binding assay on reported multiple myeloma cell lines (Lombardi et al., Molecular characterization of human multiple myeloma cell lines by integrative genomics: insights into the biology of the disease; Genes Chromosomes Cancer. 2007 March; 46(3):226-38.). The cell line NCI-H929 (ATCC® CRL-9068) was cultured in RPMI 1640 with Glutamax medium (Gibco) supplemented with 10% FBS, 1× Penicillin/Streptomycin (Gibco), lx Sodium Pyruvate (Gibco) and 50 μM beta-mercaptoethanol (Gibco).
# 0.1 Mio cells per well of a 96-round-bottom-well plate were incubated with 150 nM to 15 fM (serial dilutions of 1:10) of the indicated GPRC5D IgG constructs 5E11g2 and 5F11g2 or no construct for 30 min at 4° C. […] After two final washing steps, flow cytometric acquisition was performed on a custom-designed BD Biosciences Fortessa and analyzed using BD Diva. EC50 values were calculated, using GraphPad Prism software. […] None of the antibodies reaches saturation in the assessed concentration range.
# [3] = molecular target: T1, human GPRC5D; assay: cell-based or functional assay; remark: listed apart in the source
# [4] = molecular target: T1, human GPRC5D; assay: cell-based or functional assay; remark: listed apart in the source
# [5] = molecular target: T2, B-cell maturation antigen (BCMA) (UniProt Q02223 1-184, limits assumed); assay: cell-based or functional assay
# T2 sequence (looked up): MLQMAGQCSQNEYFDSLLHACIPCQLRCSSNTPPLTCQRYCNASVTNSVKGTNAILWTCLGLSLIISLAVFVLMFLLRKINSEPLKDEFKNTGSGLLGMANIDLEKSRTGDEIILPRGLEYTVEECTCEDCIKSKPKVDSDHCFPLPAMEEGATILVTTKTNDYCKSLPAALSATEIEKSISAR
# T1 sequence (Q9NZD1 whole entry): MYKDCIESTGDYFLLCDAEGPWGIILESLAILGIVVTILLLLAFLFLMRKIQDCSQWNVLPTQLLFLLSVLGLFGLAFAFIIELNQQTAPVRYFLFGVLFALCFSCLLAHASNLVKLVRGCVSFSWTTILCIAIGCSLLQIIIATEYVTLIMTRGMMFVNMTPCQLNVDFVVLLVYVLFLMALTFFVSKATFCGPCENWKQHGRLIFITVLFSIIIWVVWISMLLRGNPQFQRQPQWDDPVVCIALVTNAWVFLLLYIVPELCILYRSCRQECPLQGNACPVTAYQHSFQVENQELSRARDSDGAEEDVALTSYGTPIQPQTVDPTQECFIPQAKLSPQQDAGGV
binder,measurement,setting,value
B1,"EC50 of GPRC5D-IgG induced tumor cell lysis (ADCC, LDH release), AMO-1",[1],0.405 nM
same,"EC50 of GPRC5D-IgG induced tumor cell lysis (ADCC, LDH release), NCI-H929",[1],0.084 nM
same,EC50,[2],~69.5 nM
B2,"EC50 of GPRC5D-IgG induced tumor cell lysis (ADCC, LDH release), AMO-1",[1],0.096 nM
same,"EC50 of GPRC5D-IgG induced tumor cell lysis (ADCC, LDH release), NCI-H929",[1],0.048 nM
B3,"EC50 of T cell mediated killing, AMO-1 cells (LDH release)",[3],0.003 nM
same,"EC50 of T cell mediated killing, L363 cells (LDH release)",[3],0.001 nM
same,"EC50 of T cell mediated killing, NCI-H929 cells (LDH release)",[3],0.001 nM
same,"EC50 of T cell mediated killing, RPMI-8226 cells (LDH release)",[3],0.002 nM
same,"EC50 of in vitro killing, AMO-1",[4],0.006 nM
same,"EC50 of in vitro killing, EJM",[4],0.003 nM
same,"EC50 of in vitro killing, L363",[4],0.003 nM
same,"EC50 of in vitro killing, MOLP-2",[4],0.001 nM
same,"EC50 of in vitro killing, NCI-H929",[4],0.004 nM
same,"EC50 of in vitro killing, OPM-2",[4],0.001 nM
same,"EC50 of in vitro killing, RPMI",[4],0.006 nM
B4,"EC50 of in vitro killing, AMO-1",[5],0.518 nM
same,"EC50 of in vitro killing, EJM",[5],0.132 nM
same,"EC50 of in vitro killing, L363",[5],0.127 nM
same,"EC50 of in vitro killing, MOLP-2",[5],0.032 nM
same,"EC50 of in vitro killing, NCI-H929",[5],0.311 nM
same,"EC50 of in vitro killing, OPM-2",[5],0.033 nM
same,"EC50 of in vitro killing, RPMI",[5],0.011 nM
